Assay results from patent US11638741B2, “Composition for treating cancer or inhibiting cancer metastasis, including TFG or TFMG nanoparticles” (KYUNGPOOK NATIONAL UNIVERSITY INDUSTRY-ACADEMIC COOPERATION …, priority 2019, dated 2023).

Experiments:
[1] = tested on: Lewis lung carcinoma (LLC); test: Enhancement of cisplatin treatment effects in LLC allograft model (tumor size, survival); type: in vivo, C57BL/6J mice; conditions: for inhibiting the growth of the tumor: nanoparticles 100 nM (days 7, 10, 13) administered together with cisplatin 3 mg/kg (days 7, 12), on day 13
Description: In order to confirm whether the treatment effects of a conventionally used anticancer agent may be enhanced by normalizing abnormal blood vessels in a tumor, 100 nM of the TFG nanoparticles or TFMG nanoparticles was injected into the tail vein in a tumor animal model prepared in the same manner as in Example 2.1 on days 7, 10, and 13, cisplatin was injected at a concentration of 3 mg/kg on days 7 and 12, and the survival proportion was measured. An equal amount of phosphate buffered saline was injected into a negative control (Con), and an equal amount of cisplatin was injected alone into a positive control (Cis). Then, the tumor size was confirmed by obtaining tumors on days 9, 11, and 13. The results are illustrated in FIGS. 8 and 9.

[2] = tested on: naturally occurring tumor model (MMTV-PyMT gene transplanted mice); test: Inhibition of tumor metastasis in naturally occurring tumor model; type: in vivo; conditions: compared to the control; 100 nM into tail veins at 12 weeks, confirmed at 15 weeks
Source text: The results are illustrated in FIG. 12.

[3] = tested on: blood vessels in a tumor (Lewis lung carcinoma (LLC)); test: Structure and function of blood vessels in LLC tumor (IHC, pimonidazole hypoxia staining); type: in vivo, C57BL/6J mice; conditions: FIG. 7
Description: The structure and function of blood vessels in a tumor were analyzed using the tumor obtained in the same manner as in Example 2.1. More specifically, the obtained tumor was observed using a confocal microscope after fluorescent staining was performed through IHC analyses in the same manner as in Example 2.2. In order to measure the hypoxic state inside the tumor, 60 mg/kg of Hypoxyprobe-1™ (pimonidazole hydrochloride; PIMO, HPI) was administered through intraperitoneal injection, and 90 minutes later, the mouse was sacrificed and the tumor extracted. The extracted tumor was incised, and then stained with mouse anti-hypoxyprobe antibody (HPI), Alexa Fluor 488-, 568-, or 647-conjugated anti-mouse IgG (Invitrogen), and in order to measure the degree of leakage of blood vessels in the tumor, 40 mg/kg of Hoechst33258 (Invitrogen) was intravenously injected 5 minutes before the mouse was sacrificed. The prepared sample was obtained using a confocal microscope. The results are illustrated in FIGS. 6 and 7.

[4] = tested on: naturally occurring tumor model (MMTV-PyMT gene transplanted mice); test: Inhibition of tumor proliferation in naturally occurring tumor model; type: in vivo; conditions: 100 nM into tail veins of 12-week-old mice; tumors obtained at 15 weeks
Description: More specifically, the sizes of all the distinct nodules of 12-week-old mice were measured, and the mice were grouped according to the sizes of the tumors. Then, 100 nM of the TFG nanoparticles or TFMG nanoparticles was injected into their tail veins, and the tumors were obtained when the mice became 15 weeks old. Then, the sizes of the tumors were measured in the same manner as in Example 2.1. The results are illustrated in FIG. 11.

[5] = tested on: Lewis lung carcinoma (LLC); test: Inhibition of tumor proliferation and survival in LLC allograft tumor animal model; type: in vivo, C57BL/6J mice; conditions: 100 nM into the tail vein on days 7, 10, 13; for survival proportion: FIG. 3; for tumor growth inhibition effect: compared with the control, tumor obtained on day 14
Description: In order to confirm the effects of the TFG nanoparticles or TFMG nanoparticles on the proliferation of cancer cells, after a tumor animal model was prepared by allografting 2 to 5×10^5 cells of Lewis lung carcinoma (LLC) as a murine lung cancer cell line into 6- to 7-week-old C57BL/6J mice, 100 nM of the TFG nanoparticles or TFMG nanoparticles was injected into the tail vein on days 7, 10, and 13, and then the size and survival proportion of the tumor were observed by obtaining the tumor on day 14. The tumor size was measured by substitution into the formula “0.5×A×B^2 (A: diameter in the longest direction, and B: diameter in a direction vertical to the longest direction).” An equal amount of phosphate buffered saline was administered to a control (Con). Animal care and all experimental procedures were performed in accordance with the laws and regulations for animal experiments. In order to show a significant difference between the corresponding groups in at least 3 of all the experimental result values, an ANOVA verification was performed, and only values with statistical significance of P-values <0.05 were shown as the average value±standard deviations (SD). The results are illustrated in FIGS. 1 to 3.

[6] = tested on: Lewis lung carcinoma (LLC); test: Inhibition of tumor metastasis into lungs and inguinal lymph nodes, LLC allograft model after tumor removal surgery; type: in vivo, C57BL/6J mice; conditions: compared with the control; for lymph node metastasis inhibition rate: inguinal lymph nodes, IHC, day 28; for metastasis of the tumor into the lungs inhibited: tumor removal surgery day 14, metastasis confirmed day 28
Description: In order to confirm whether the TFG nanoparticles or TFMG nanoparticles affected the inhibition of metastasis of tumor, a tumor animal model was prepared in the same manner as in Example 2.1, and then the TFG nanoparticles or TFMG nanoparticles were injected. Then, a tumor removal surgery was performed on day 14, and it was confirmed whether the tumor metastasized into the lungs and the inguinal lymph nodes (LNs) on day 28. The metastasis into the inguinal lymph nodes was confirmed using immunohistochemistry (IHC) analyses. More specifically, the lymph nodes obtained to confirm cytokeratin positive tumor cells were fixed with 3.7% paraformaldehyde (PFA), and then dehydrated by treatment with a 10 to 40% sucrose solution at each step. Then, after the permeability of cells was increased by treatment with 0.3% Triton X-100 and a blocking process was performed using a bovine serum albumin (BSA), the lymph nodes were treated with rat anti-CD31 (BD Biosciences), mouse anti-α-SMA (Abcam), mouse anti-pimonidazole (HPI), mouse anti-cytokeratin II (Millipore), or rabbit anti-LYVE-1 (Angiobio) antibodies, and reacted at 4° C. for 16 hours. Then, unbound antibodies were washed using phosphate buffered saline, and then treated with Alexa Fluor 488-, 568-, or 647-conjugated anti-mouse IgG (Invitrogen), Alexa Fluor 594- or 647-conjugated anti-rat IgG (Invitrogen), Alexa Fluor 488-, 568-, or 647-conjugated anti-rabbit IgG (Invitrogen) antibodies that were secondary antibodies to a fluorescent marker, and reacted at room temperature for 1 hour. Then, finally, cellular nuclei were stained by treatment with Hoechst33258 (Invitrogen) for 1 minute, and then observed using a confocal microscope, and a fluorescence value was quantified using ImageJ. In order to show a significant difference between the corresponding groups in at least 3 of all the experimental result values, an ANOVA verification was performed, and only values with statistical significance of P-values <0.05 were shown as the average value±standard deviations (SD). The results are illustrated in FIGS. 4 to 5.

Row | Molecule | growth of the tumor inhibited ([1]; cisplatin administered alone, 3 mg/kg on days 7 and 12 (positive control)) | inhibiting the growth of the tumor [1] | metastasis inhibition rate [2] | blood vessels covered with α-smooth muscle actin positive pericytes [3] | number of nodules with tumors decreased [4] | sizes of the tumors decreased [4] | survival proportion [5] | tumor growth inhibition effect [5] | lymph node metastasis inhibition rate [6] | metastasis of the tumor into the lungs inhibited [6]
1 | N.N.[Cl][Pt][Cl] [cisplatin, reference compound] | 62.6% |  |  |  |  |  |  |  |  | 
2 | TFG nanoparticles: a TRAP-ferritin monomer fragment-PC-Gla fusion polypeptide; a polypeptide represented by SEQ ID NO: 1 (protein, nanoparticle assembly; TFG nanoparticle) MGGTTFLLRNASGHMSSQIRQNYSTDVEAAVNSLVNLYLQASYTYLSLGFYFDRDDVALEGVSHFFRELAEEKREGYERLLKMQNQRGGRIFLQDIKKPAEDEWGKTPDAMKAAMALEKKLNQALLDLHALGSARTDPHLCDFLETHFLDEEVKLIKKMGDHLTNLHRLGGGSEFVDGGGSGTSANSFLEELRHSSLERECIEEICDFEEAKEIFQNVDDTLAFWSKHVLEHHHHHH |  | 96.2% | 93.6% | increased | 39.1% | 85% | increased | 28.2% | 76.9% | 83.4%
3 | TFMG nanoparticles: a TRAP-ferritin monomer fragment-linker-PC-Gla fusion polypeptide; a polypeptide represented by SEQ ID NO: 2 (protein, nanoparticle assembly; TFMG nanoparticle) MGGTTFLLRNASGHMSSQIRQNYSTDVEAAVNSLVNLYLQASYTYLSLGFYFDRDDVALEGVSHFFRELAEEKREGYERLLKMQNQRGGRIFLQDIKKPAEDEWGKTPDAMKAAMALEKKLNQALLDLHALGSARTDPHLCDFLETHFLDEEVKLIKKMGDHLTNLHRLGGGSEFVDGGGSGTSGPLGLAGANSFLEELRHSSLERECIEEICDFEEAKEIFQNVDDTLAFWSKHVLEHHHHHH |  | 94.3% | 93.6% | increased | 59% | 87.2% | increased | 27.0% | 78.1% | 86.4%
